Test [1] has as its target T1, recombinant cynomolgus MerTK extracellular domain (cynomolgus, UniProt Q12866 21-505 (human entry)).
T1 construct: also called cyno MerTK ECD; not shown: polyHis or TEVS/Thrombin/murine IgG2a-Fc tag
T1 chain: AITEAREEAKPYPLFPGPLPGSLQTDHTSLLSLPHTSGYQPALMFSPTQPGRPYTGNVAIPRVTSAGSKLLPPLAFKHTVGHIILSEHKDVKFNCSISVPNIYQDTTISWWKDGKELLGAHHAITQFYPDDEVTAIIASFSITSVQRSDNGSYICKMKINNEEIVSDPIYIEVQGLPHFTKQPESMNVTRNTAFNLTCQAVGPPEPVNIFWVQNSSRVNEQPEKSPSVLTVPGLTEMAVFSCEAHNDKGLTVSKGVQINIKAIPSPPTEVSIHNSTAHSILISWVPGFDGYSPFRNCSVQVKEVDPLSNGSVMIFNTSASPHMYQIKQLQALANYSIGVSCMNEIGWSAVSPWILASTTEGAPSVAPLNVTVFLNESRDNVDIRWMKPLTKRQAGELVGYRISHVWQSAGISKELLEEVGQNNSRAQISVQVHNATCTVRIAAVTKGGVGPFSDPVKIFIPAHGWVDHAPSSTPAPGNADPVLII
Kind of test: SPR Carterra LSA. The protocol:
(§1) Binding kinetics of anti-MerTK IgG1 antibodies of the present disclosure to human, cyno, and murine MerTK were evaluated using a Carterra LSA instrument (Carterra, Salt Lake City, UT). […] A HC200M sensor chip (Carterra) was activated using the single channel flow cell with a 7-minute injection of a 1:1:1 mixture of 100 mM MES pH 5.5, 100 mM sulfo-NHS, 400 mM EDC (all reconstituted in MES pH 5.5; 100 μl of each mixed in vial immediately before running assay). After switching to the multi-channel array flow cell, the antibodies were injected over the activated chip in three 96-spot arrays for 10 minutes each. The remaining unconjugated active groups on the chip were then blocked by injecting 1M Ethanolamine pH 8.5 (Carterra) for 7 minutes using the single channel flow cell. The resulting sensor chip contained three spots for each antibody, at three different densities. Two independent experiments were performed as follows, resulting in an N of between one and six determinations for each antibody. Spots that yielded less than 25 RU of analyte binding were excluded from further analysis.
(§2) After priming with running buffer (HBS-TE, Carterra) with 0.5 mg/ml BSA (Sigma), the immobilized anti-MerTK antibodies were tested for their ability to bind to several forms of recombinant MerTK extracellular domain, including human, cynomolgus, and mouse orthologs as described above. Estimates of affinity were generated by injecting each analyte over the entire antibody array using the single channel flow cell. MerTK analytes were diluted with running buffer, in a series of six, three-fold serial dilutions starting from 1 μM for human and cynomolgus MerTK, and 600 nM for mouse MerTK. Analytes were injected for 5 minutes, and dissociation was followed for 10 minutes. After each analyte injection, antibodies were regenerated with either Protein A/G Elution Buffer (Thermo) with 1M NaCl (Teknova), or with 10 mM Glycine pH 2.5. Three buffer blanks were run between each series (one species per series). Data were processed and analyzed using NextGenKIT high-throughput kinetics analysis software (Carterra).

Test [2] has as its target T2, recombinant human MerTK extracellular domain (human, UniProt Q12866 21-505).
T2 construct: also called human MerTK ECD; not shown: polyHis or TEVS/Thrombin/murine IgG2a-Fc tag
T2 sequence: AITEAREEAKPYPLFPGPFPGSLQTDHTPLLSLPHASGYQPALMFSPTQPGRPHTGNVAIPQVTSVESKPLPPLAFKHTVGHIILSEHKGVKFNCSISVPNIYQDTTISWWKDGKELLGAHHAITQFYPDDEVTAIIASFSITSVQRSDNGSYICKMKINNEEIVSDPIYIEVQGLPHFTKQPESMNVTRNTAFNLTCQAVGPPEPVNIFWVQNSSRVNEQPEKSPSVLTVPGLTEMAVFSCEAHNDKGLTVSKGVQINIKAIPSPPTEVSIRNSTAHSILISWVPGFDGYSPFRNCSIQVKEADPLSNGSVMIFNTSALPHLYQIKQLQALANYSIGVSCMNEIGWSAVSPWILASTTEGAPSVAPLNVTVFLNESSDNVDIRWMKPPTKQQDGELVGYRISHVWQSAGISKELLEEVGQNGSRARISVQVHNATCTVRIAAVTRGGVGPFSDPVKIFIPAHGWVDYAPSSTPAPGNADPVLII
Nature of the test: SPR Carterra LSA, Ab immobilised. On the procedure: as §1, §2

As usually defined, the Kd is the free concentration of one partner at which half of the binding sites on the other are occupied at equilibrium, for simple one-to-one binding.

B1: MTK-223 (antibody, human IgG1, V domains shown)
VH: DVQLQESGPGLVKPSQSLSLTCSVTGYSITSGYYWNWIRQFPGNKLEWMGYISYDGTNNYNPSLKNRISITRDTSENQFFLKLNSVTTEDTATYFCVRGAGYWGQGTTLTVSS
VL: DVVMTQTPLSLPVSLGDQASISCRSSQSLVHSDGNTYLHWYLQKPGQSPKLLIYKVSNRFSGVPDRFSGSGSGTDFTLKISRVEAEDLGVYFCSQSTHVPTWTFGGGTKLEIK
As for B1, the “Ratio of KD for Cynomolgus vs Human MerTK” value (shortened to “Ratio of KD for Cynomolgus”) in test [1] stood at 2.5 ratio. Further, in test [2], the Kd worked out at 75 nM.

B2: MTK-231 (antibody, human IgG1, V domains shown)
VH: DVQLQESGPGLVKPSQSLSLTCSVTGYSITSGYYWNWIRQFPGNKLEWMGYISYDGTYNYHPSLKNRISITRDTSKNQFFLTLNSVTTEDTATFYCTRGGGYWGQGTSVTVSS
VL: DVVMTQTPLSLPVSLGDQASISCRSSQSLVHSDGNTYLHWYLQKPGQSPKLLIYKVSNRFSGVPDRFSGSGSGTDFTLKISRLEAEDLGIYFCSQTTHIPLTFGSGTKLEIK
Regarding B2, the “Ratio of KD for Cynomolgus” value in test [1] worked out at 1.8 ratio. Further, the dissociation constant Kd in test [2] was 26 nM.

B3: MTK-228 (antibody, human IgG1, V domains shown)
VH: QDQLQQSGPELVKPGASVKISCKASGYSFTSYYIHWVKQRPGQGLEWVGWIFPGNGNTKYNERFKGKATLTADTSSSTAYMQLSSLTSEDSAVYYCARLGLIYALDYWGQGTSVTVSS
VL: DAVMTQTPLSLPVSLGDQASISCRSSQSLENSNGNTYLHWYLQKPGQSPQLLIYRVSNRFSGVLDRFSGSGSGTDFTLKISRVEAEDLGVYFCLQVTHVPFTFGSGTKLEIK
Consider B3, for which the “Ratio of KD for Cynomolgus” value in test [1] came to 1.1 ratio. Also, the Kd in test [2] came to 42 nM.

B4: MTK-226 (antibody, human IgG1, V domains shown)
VH: QVQLQQSGPELVKPGASVKISCKASGYSFTSYYIHWVKQRPGQGLEWIGWIFPGNGNTKYNENFRGKATLTADTSSSTAYMQLSSLTSEDSAVYYCARLGLIYALDYWGQGTSVTVSS
VL: DAVMTQTPLSLPVSLGDQASISCRSSQSLESSNGNTYLHWYLQKPGQSPQLLIYRVSNRFSGVLDRFSGSGSGTDFTLQISRVEAEDLGVYFCLQVTHVPFTFGSGTKLEIK
On to B4, for which, in test [1], the “Ratio of KD for Cynomolgus” value is 1.2 ratio. Also, the Kd in test [2] amounted to 39 nM.

B5: MTK-218 (antibody, human IgG1, V domains shown)
VH: QVQLQQSGPELVKPGTSVKISCKASGYSFTSYYIHWVKQRPGQGLDWIGWIFPGNRNTQYNEKFKGKATLTADTSSSTAYMQLSSLTSEDSAVYYCARLGLIYALDYWGQGTSVTVSS
VL: DAVMTQTPLSLPVSLGDQASISCRSSQSLENSNGHTYLHWYLQKPGQSPQLLIYRVSNRFSGVQDRFSGSGSGTDFTLKISRVEAEDLGVYFCLQVTHVPFTFGSGTKLEIK
For B5, the “Ratio of KD for Cynomolgus” value in test [1] worked out at 1.3 ratio. Besides, the Kd in test [2] was 64 nM.

B6: MTK-207 (antibody, human IgG1, V domains shown)
VH: QVQLKESGPGLVAPSQSLSITCTVSGISLTSYGVSWVRQPPGKGLEWLGIIWGDGSTNYHSALISRLSISKDNSKSQVFLKLNSLQTDDTATYYCAKGRYGNYEDWYFDVWGTGTTVTVSS
VL: DIQMTQSPASLSASVGETVTITCRASGNIHNYLAWYQQKQGKSPQLLVYNAKTLAAGVPSRFSGSGSGTQYSLKINSLQPEDFGSYYCQHFWSIPLTFGAGTKLELK
As for B6, the Kd in test [2] amounted to 52 nM.

B7: MTK-213 (antibody, human IgG1, V domains shown)
VH: QVQLQQPGAELVKPGASVKMSCKASGYTFTSYWITWVKQRPGQGHEWIGEIYPGIGSTNYNEKFKSKATLTVDTSSRTAYMQLSSLTSEDSAVYFCARGAYTKYYFDYWGQGTTLTVSS
VL: DIVMTQSHKFMSTSVGDRVSITCKASQDVGDAVAWYQQKPGQTPKLLIYWASTRHTGVPDRFTGSGSGTDFTLTISNVQSEDLADYFCQQYSSYLMYTFGGGTKLEIK
For B7, in test [1], the “Ratio of KD for Cynomolgus” value was found to be 0.9 ratio. Besides, in test [2], the dissociation constant Kd came out at 64 nM.

B8: MTK-220 (antibody, V domains shown)
VH: EVQLVESGGGLVKPGGSLKLSCAASGFTFSDYGMHWVRQAPEKGLEWVAFISGGSGTIYYEDTVKGRFTISRDNAKNTLFLQMTSLRSEDTAMYYCTRGGNYFDYWGQGTTLTVSS
VL: NIMLTQSPSSLAVSAGEKVTMTCKSSQSVLYSSNQKNYLAWYQQKPGQSPKLLIYWASTRESGVPDRFTGSGSGTDFTLTISNVQAEDLAVYYCHQYFSSWTFGGGTKLEIK
For B8, in test [1], the “Ratio of KD for Cynomolgus” value amounted to 2.7 ratio. For the same molecule, the Kd in test [2] was found to be 150 nM.

B9: MTK-202 (antibody, human IgG1, V domains shown)
VH: EVQLVESGGGLVKPGGSLKLSCAASGFTFSDFGMHWVRQVPEKGLEWVAFISGGSNTIYYTDTVKGRFTISRDNAKNTLFLQMTSLRSEDTAMYYCVRNGNSFAYWGQGTLVTVSA
VL: NIMMTQSPSSLAVSAGEKVTMNCKSSQSVLYSSNQKNYLAWYQQKPGQSPKLLIYWASTRESGVPDRFTGSGSGTDFTLTISNIQAEDLAIYYCHQYFFSWTFGGGTKLEIK
Consider B9, for which the “Ratio of KD for Cynomolgus” value in test [1] is 4.8 ratio. The dissociation constant Kd in test [2] amounted to 33 nM.

B10: MTK-216 (antibody, human IgG1, V domains shown)
VH: EVQLVESGGGLVKPGGSLKLSCAASGFTFSDYGMHWVRQAPEKGLEWVAFISSGSTTIYYADTVKGRFTISRDNAKNTLILQMTSLRSEDTAIYYCTRGGFHLDYWGQGTTLTVSS
VL: SIMMTQSPSSLAVSAGEKVTMGCKSSQSVLYSANQQNYLAWYQQKPGQSLKLLIYWASTRESGVPDRFTGSGSGTDFTLTISSVQAEDLAVYYCHQYFSSWTFGGGTKLEIK
With B10, the Kd in test [2] came to 41 nM.

B11: MTK-204 (antibody, human IgG1, V domains shown)
VH: EVQLVESGGGLVKPGGSLKLSCAASGFTFSDYGMHWVRQAPEKGLEWVAYISSGTSTIYYEDTVKGRFTISRDNAKNTLFLQMTSLRSEDTAMYYCARGGLLFDYWGQGTTLTVSS
VL: NIMMTQSPSSLAVSAGEKVTMSCKSSQSVLYSSNQKNYLAWYQQKPGQSPKLLIQWASTRESGVPDRFTGSGSETDFTLTIRSVQAEDLAVYYCHQYFSSWTFGGGTKLEIK
Turning to B11, the “Ratio of KD for Cynomolgus” value in test [1] was determined as 2.8 ratio. Besides, the dissociation constant (Kd) in test [2] worked out at 240 nM.

B12: MTK-211 (antibody, human IgG1, V domains shown)
VH: QVQLQQSGAELMKPGASVKLSCKATGYTFTGYWIEWVKQRPGHGLEWIGEILPGSGGSNYNEKFKGKATFTADTSSNTAYIQLSSLTTEDSAIYCCARGEPSYFSDAGFAYWGQGTLVTVSA
VL: QIVLTQSPAVMSASPGEKVTMTCSASSSITYMHWYQQKPGTSPKRWIYDTSKLASGVPARFSGSGSGTSYFLTISSMEAEDVATYYCHQRSTYPYTFGGGTKLEIM
For B12, the “Ratio of KD for Cynomolgus” value in test [1] is 1.1 ratio. The dissociation constant Kd in test [2] amounted to 1.3 nM.

B13: MTK-215 (antibody, human IgG1, V domains shown)
VH: EVQLVESGGGLVKPGGSLKLSCAASGFIFSDYGMHWVRQAPEKGLEWVAYISSGSSTIYYGDTVKGRFTISRDNAKNTLFLQMTSLRSEDTAMYYCAKGGRYGAMDYWGHGTSVTVSS
VL: DIVLTQSPATLSVTPGDSVSLSCRASQSISNNLHWYQQKSHESPRLLIKNPSQSISGIPSRFGARGSGTDFTLIINSVETEDLGVYFCQQSNSWPFTFGSGTKLEIK
With B13, the “Ratio of KD for Cynomolgus” value in test [1] is 4.3 ratio. Besides, in test [2], the Kd is 370 nM.

B14: MTK-208 (antibody, human IgG1, V domains shown)
VH: QVQLQQPGAELVVPGASVRLSCKASGYTFINYWMHWVKQRPGQGLEWIGEIDPSDSYANYNQKFKDKSTLSLDKSSSTAYMQLSSLTSEDSAVYYCARCDYYGRLDYWGQGTTLTVSS
VL: QVVLTQSPAIMSASPGEKVTITCSASSSVSYMLWFQQKPGTSPKLWIYSTSNLASGVPARFSGSGSGTSYSLTISRLEAEDAATYYCQQRSSYPPITFGAGTKLELK
For B14, in test [1], the “Ratio of KD for Cynomolgus” value was determined as 1.8 ratio. In addition, the dissociation constant Kd in test [2] worked out at 19 nM.
